Measured values as given in article PMC12396215.

Tests used:
[1] = molecular target: extracellular domain of EpCAM (EpCAM ECD) (UniProt P16422); experiment: other fluorescence titration; Kd of the probe for EpCAM ECD calculated from the increase of SiP fluorescence (Figure S10)
[2] = molecular target: extracellular domain of EpCAM (EpCAM ECD) (UniProt P16422); experiment: fluorescence increase of the DARPin-SiP conjugate on adding the antigen (plate reader); probe pretreated with DTT; probe 500 nM, EpCAM ECD 1 uM
[3] = molecular target: extracellular domain of EpCAM (EpCAM ECD) (UniProt P16422); experiment: fluorescence increase of the DARPin-SiP conjugate on adding the antigen (plate reader); conjugate 500 nM (not pretreated with DTT), EpCAM ECD 1 uM; fold activation = fluorescence at 31 min divided by that just before EpCAM ECD

Chain of UniProt P16422 (P16422 24-265): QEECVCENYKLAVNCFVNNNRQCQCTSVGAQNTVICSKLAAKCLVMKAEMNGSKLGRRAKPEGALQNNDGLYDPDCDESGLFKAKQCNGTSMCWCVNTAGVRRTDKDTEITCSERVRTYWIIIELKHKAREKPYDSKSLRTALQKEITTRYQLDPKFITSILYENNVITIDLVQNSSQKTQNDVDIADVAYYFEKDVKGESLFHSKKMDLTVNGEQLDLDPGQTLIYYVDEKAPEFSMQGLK

For “Ec1 K152C-5-Gly SiP conjugate (designed binder)”, the Kd [1] was 238 nM, the fold activation of SiP fluorescence on adding EpCAM ECD [2] was > 12 fold and the fold increase of SiP fluorescence on adding EpCAM ECD [3] was 7 fold.
